Experimental data as given in patent US20110008345A1 (GlaxoSmithKline, published 2011).

T1: recombinant E. coli-expressed human IL-4 (human, UniProt P05112 25-153)
T1 construct: made and purified at GSK; also called Interleukin-4; rhIL-4
T1 sequence: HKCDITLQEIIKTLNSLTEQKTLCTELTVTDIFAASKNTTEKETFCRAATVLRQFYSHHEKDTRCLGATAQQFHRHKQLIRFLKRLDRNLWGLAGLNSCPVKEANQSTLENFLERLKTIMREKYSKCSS


Columns and labels:
[1] = molecular target: T2, recombinant E. coli-expressed human IL-13 (human, UniProt P35225 35-146); assay: SPR
T2 construct: made and purified at GSK; also called Interleukin-13; rhIL-13

[2] = molecular target: T1, recombinant E. coli-expressed human IL-4; assay: SPR
[3] = molecular target: T1, recombinant E. coli-expressed human IL-4; assay: SPR exp 1
[4] = molecular target: T2, recombinant E. coli-expressed human …; assay: SPR exp 1

Kd [1]	Kd [2]	koff [2]	kon [2]	Binder	also measured
0.46 nM	345 nM	0.00118 s⁻¹	3420 M⁻¹ s⁻¹	586H-147 (bispecific antibody, human IgG1, kappa) heavy: not shown light: DIVMTQSPLSLPVTPGEPASISCRSSQNIVHINGNTYLEWYLQKPGQSPRLLIYKISDRFSGVPDRFSGSGSGTDFTLKISRVEADDVGIYYCFQGSHVPWTFGQGTKLEIKRTVAAPSVFIFPPSDEQLKSGTASVVCLLNNFYPREAKVQWKVDNALQSGNSQESVTEQDSKDSTYSLSSTLTLSKADYEKHKVYACEVTHQGLSSPVTKSFNRGEC	
0.45 nM	108 nM	0.000457 s⁻¹	4210 M⁻¹ s⁻¹	586H-G4S-147 (bispecific antibody, human IgG1, kappa) heavy: not shown light: DIVMTQSPLSLPVTPGEPASISCRSSQNIVHINGNTYLEWYLQKPGQSPRLLIYKISDRFSGVPDRFSGSGSGTDFTLKISRVEADDVGIYYCFQGSHVPWTFGQGTKLEIKRTVAAPSVFIFPPSDEQLKSGTASVVCLLNNFYPREAKVQWKVDNALQSGNSQESVTEQDSKDSTYSLSSTLTLSKADYEKHKVYACEVTHQGLSSPVTKSFNRGEC	
0.47 nM				586H-ELQLE (antibody, human IgG1, kappa, no dAb; linker only) heavy: not shown light: DIVMTQSPLSLPVTPGEPASISCRSSQNIVHINGNTYLEWYLQKPGQSPRLLIYKISDRFSGVPDRFSGSGSGTDFTLKISRVEADDVGIYYCFQGSHVPWTFGQGTKLEIKRTVAAPSVFIFPPSDEQLKSGTASVVCLLNNFYPREAKVQWKVDNALQSGNSQESVTEQDSKDSTYSLSSTLTLSKADYEKHKVYACEVTHQGLSSPVTKSFNRGEC	binding result [2]: no binding (tested: 512 nM top concentration)
0.32 nM				586H-ASTKG (antibody, human IgG1, kappa, no dAb; linker only) heavy: not shown light: DIVMTQSPLSLPVTPGEPASISCRSSQNIVHINGNTYLEWYLQKPGQSPRLLIYKISDRFSGVPDRFSGSGSGTDFTLKISRVEADDVGIYYCFQGSHVPWTFGQGTKLEIKRTVAAPSVFIFPPSDEQLKSGTASVVCLLNNFYPREAKVQWKVDNALQSGNSQESVTEQDSKDSTYSLSSTLTLSKADYEKHKVYACEVTHQGLSSPVTKSFNRGEC	binding result [2]: no binding (tested: 512 nM top concentration)
0.44 nM	18.8 nM	0.00069 s⁻¹	36700 M⁻¹ s⁻¹	586H-ASTKG-147 (bispecific antibody, human IgG1, kappa) heavy: not shown light: DIVMTQSPLSLPVTPGEPASISCRSSQNIVHINGNTYLEWYLQKPGQSPRLLIYKISDRFSGVPDRFSGSGSGTDFTLKISRVEADDVGIYYCFQGSHVPWTFGQGTKLEIKRTVAAPSVFIFPPSDEQLKSGTASVVCLLNNFYPREAKVQWKVDNALQSGNSQESVTEQDSKDSTYSLSSTLTLSKADYEKHKVYACEVTHQGLSSPVTKSFNRGEC	
0.44 nM				586H (antibody, human IgG1, kappa, no dAb; heavy chain ends in GS) heavy: not shown light: DIVMTQSPLSLPVTPGEPASISCRSSQNIVHINGNTYLEWYLQKPGQSPRLLIYKISDRFSGVPDRFSGSGSGTDFTLKISRVEADDVGIYYCFQGSHVPWTFGQGTKLEIKRTVAAPSVFIFPPSDEQLKSGTASVVCLLNNFYPREAKVQWKVDNALQSGNSQESVTEQDSKDSTYSLSSTLTLSKADYEKHKVYACEVTHQGLSSPVTKSFNRGEC	binding result [2]: no binding (tested: 512 nM top concentration)
0.46 nM	26.4 nM	0.000671 s⁻¹	25400 M⁻¹ s⁻¹	586H-EPKSC-147 (bispecific antibody, human IgG1, kappa) heavy: not shown light: DIVMTQSPLSLPVTPGEPASISCRSSQNIVHINGNTYLEWYLQKPGQSPRLLIYKISDRFSGVPDRFSGSGSGTDFTLKISRVEADDVGIYYCFQGSHVPWTFGQGTKLEIKRTVAAPSVFIFPPSDEQLKSGTASVVCLLNNFYPREAKVQWKVDNALQSGNSQESVTEQDSKDSTYSLSSTLTLSKADYEKHKVYACEVTHQGLSSPVTKSFNRGEC	
0.45 nM				586H-EPKSC (antibody, human IgG1, kappa) heavy: not shown light: DIVMTQSPLSLPVTPGEPASISCRSSQNIVHINGNTYLEWYLQKPGQSPRLLIYKISDRFSGVPDRFSGSGSGTDFTLKISRVEADDVGIYYCFQGSHVPWTFGQGTKLEIKRTVAAPSVFIFPPSDEQLKSGTASVVCLLNNFYPREAKVQWKVDNALQSGNSQESVTEQDSKDSTYSLSSTLTLSKADYEKHKVYACEVTHQGLSSPVTKSFNRGEC	binding result [2]: no binding (tested: 512 nM top concentration)
0.39 nM	67 nM	0.000411 s⁻¹	6130 M⁻¹ s⁻¹	586H-25 (bispecific antibody, human IgG1, kappa) heavy: not shown light: DIVMTQSPLSLPVTPGEPASISCRSSQNIVHINGNTYLEWYLQKPGQSPRLLIYKISDRFSGVPDRFSGSGSGTDFTLKISRVEADDVGIYYCFQGSHVPWTFGQGTKLEIKRTVAAPSVFIFPPSDEQLKSGTASVVCLLNNFYPREAKVQWKVDNALQSGNSQESVTEQDSKDSTYSLSSTLTLSKADYEKHKVYACEVTHQGLSSPVTKSFNRGEC	
0.55 nM	29.6 nM	0.00142 s⁻¹	47900 M⁻¹ s⁻¹	586H-EPKSC-25 (bispecific antibody, human IgG1, kappa) heavy: not shown light: DIVMTQSPLSLPVTPGEPASISCRSSQNIVHINGNTYLEWYLQKPGQSPRLLIYKISDRFSGVPDRFSGSGSGTDFTLKISRVEADDVGIYYCFQGSHVPWTFGQGTKLEIKRTVAAPSVFIFPPSDEQLKSGTASVVCLLNNFYPREAKVQWKVDNALQSGNSQESVTEQDSKDSTYSLSSTLTLSKADYEKHKVYACEVTHQGLSSPVTKSFNRGEC	
0.46 nM	285 nM	0.00174 s⁻¹	6100 M⁻¹ s⁻¹	586H-154 (bispecific antibody, human IgG1, kappa) heavy: not shown light: DIVMTQSPLSLPVTPGEPASISCRSSQNIVHINGNTYLEWYLQKPGQSPRLLIYKISDRFSGVPDRFSGSGSGTDFTLKISRVEADDVGIYYCFQGSHVPWTFGQGTKLEIKRTVAAPSVFIFPPSDEQLKSGTASVVCLLNNFYPREAKVQWKVDNALQSGNSQESVTEQDSKDSTYSLSSTLTLSKADYEKHKVYACEVTHQGLSSPVTKSFNRGEC	
0.54 nM	21.8 nM	0.0012 s⁻¹		586H-ASTKG-25 (bispecific antibody, human IgG1, kappa) heavy: not shown light: DIVMTQSPLSLPVTPGEPASISCRSSQNIVHINGNTYLEWYLQKPGQSPRLLIYKISDRFSGVPDRFSGSGSGTDFTLKISRVEADDVGIYYCFQGSHVPWTFGQGTKLEIKRTVAAPSVFIFPPSDEQLKSGTASVVCLLNNFYPREAKVQWKVDNALQSGNSQESVTEQDSKDSTYSLSSTLTLSKADYEKHKVYACEVTHQGLSSPVTKSFNRGEC	
0.42 nM	18.8 nM	0.00057 s⁻¹	30300 M⁻¹ s⁻¹	586H-EPKSC-154 (bispecific antibody, human IgG1, kappa) heavy: not shown light: DIVMTQSPLSLPVTPGEPASISCRSSQNIVHINGNTYLEWYLQKPGQSPRLLIYKISDRFSGVPDRFSGSGSGTDFTLKISRVEADDVGIYYCFQGSHVPWTFGQGTKLEIKRTVAAPSVFIFPPSDEQLKSGTASVVCLLNNFYPREAKVQWKVDNALQSGNSQESVTEQDSKDSTYSLSSTLTLSKADYEKHKVYACEVTHQGLSSPVTKSFNRGEC	
0.41 nM	151 nM	0.000954 s⁻¹	6300 M⁻¹ s⁻¹	586H-G4S-25 (bispecific antibody, human IgG1, kappa) heavy: not shown light: DIVMTQSPLSLPVTPGEPASISCRSSQNIVHINGNTYLEWYLQKPGQSPRLLIYKISDRFSGVPDRFSGSGSGTDFTLKISRVEADDVGIYYCFQGSHVPWTFGQGTKLEIKRTVAAPSVFIFPPSDEQLKSGTASVVCLLNNFYPREAKVQWKVDNALQSGNSQESVTEQDSKDSTYSLSSTLTLSKADYEKHKVYACEVTHQGLSSPVTKSFNRGEC	
0.44 nM	8.7 nM	0.000284 s⁻¹	32600 M⁻¹ s⁻¹	586H-ASTKG-154 (bispecific antibody, human IgG1, kappa) heavy: not shown light: DIVMTQSPLSLPVTPGEPASISCRSSQNIVHINGNTYLEWYLQKPGQSPRLLIYKISDRFSGVPDRFSGSGSGTDFTLKISRVEADDVGIYYCFQGSHVPWTFGQGTKLEIKRTVAAPSVFIFPPSDEQLKSGTASVVCLLNNFYPREAKVQWKVDNALQSGNSQESVTEQDSKDSTYSLSSTLTLSKADYEKHKVYACEVTHQGLSSPVTKSFNRGEC	
0.37 nM	138 nM	0.000685 s⁻¹	5000 M⁻¹ s⁻¹	586H-G4S-154 (bispecific antibody, human IgG1, kappa) heavy: not shown light: DIVMTQSPLSLPVTPGEPASISCRSSQNIVHINGNTYLEWYLQKPGQSPRLLIYKISDRFSGVPDRFSGSGSGTDFTLKISRVEADDVGIYYCFQGSHVPWTFGQGTKLEIKRTVAAPSVFIFPPSDEQLKSGTASVVCLLNNFYPREAKVQWKVDNALQSGNSQESVTEQDSKDSTYSLSSTLTLSKADYEKHKVYACEVTHQGLSSPVTKSFNRGEC	
				PascoH-ELQLE-474 (bispecific antibody, human IgG1, kappa) heavy: not shown light: DIVLTQSPSSLSASVGDRVTITCKASQSVDYDGDSYMNWYQQKPGKAPKLLIYAASNLESGIPSRFSGSGSGTDFTFTISSLQPEDIATYYCQQSNEDPPTFGQGTKVEIKRTVAAPSVFIFPPSDEQLKSGTASVVCLLNNFYPREAKVQWKVDNALQSGNSQESVTEQDSKDSTYSLSSTLTLSKADYEKHKVYACEVTHQGLSSPVTKSFNRGEC	Kd [3]: 0.02 nM; koff [3]: 0.00011 s⁻¹; kon [3]: 5.1e+06 M⁻¹ s⁻¹; Kd [4]: 1.8 nM; koff [4]: 0.00062 s⁻¹; kon [4]: 340000 M⁻¹ s⁻¹
				PascoH-EPKSC-474 (bispecific antibody, human IgG1, kappa) heavy: not shown light: DIVLTQSPSSLSASVGDRVTITCKASQSVDYDGDSYMNWYQQKPGKAPKLLIYAASNLESGIPSRFSGSGSGTDFTFTISSLQPEDIATYYCQQSNEDPPTFGQGTKVEIKRTVAAPSVFIFPPSDEQLKSGTASVVCLLNNFYPREAKVQWKVDNALQSGNSQESVTEQDSKDSTYSLSSTLTLSKADYEKHKVYACEVTHQGLSSPVTKSFNRGEC	Kd [3]: 0.02 nM; koff [3]: 9.8e-05 s⁻¹; kon [3]: 4.9e+06 M⁻¹ s⁻¹; Kd [4]: 1.1 nM; koff [4]: 0.0004 s⁻¹; kon [4]: 350000 M⁻¹ s⁻¹
